# How the values were obtained:
# [1] = target: 6xHis-BioID R118G (Escherichia coli K-12) (UniProt P06709); assay: EMSA; details: 50 mM Tris-HCl pH 8.0, 1 mM EDTA, 50 mM NaCl, 1 mM ATP, 1 mM MgCl2, 1 uM biotin, 10% glycerol; 30 min room temperature; 5% PAGE in 0.5x TAE at 4 C
# [2] = target: 6xHis-BirA (Escherichia coli K-12) (UniProt P06709); assay: EMSA; details: 50 mM Tris-HCl pH 8.0, 1 mM EDTA, 50 mM NaCl, 1 mM ATP, 1 mM MgCl2, 1 uM biotin, 10% glycerol; 30 min room temperature; 5% PAGE in 0.5x TAE at 4 C
# MBP-BccP (S. flexneri) = MBP-BccP (S. flexneri) (UniProt P0ABE1)
# [3] = system: 6xHis-TurboID (Escherichia coli K-12); assay: EMSA; details: 50 mM Tris-HCl pH 8.0, 1 mM EDTA, 50 mM NaCl, 1 mM ATP, 1 mM MgCl2, 1 uM biotin, 10% glycerol; 30 min room temperature; 5% PAGE in 0.5x TAE at 4 C
# [4] = system: 6xHis-BioID (Escherichia coli K-12); assay: EMSA; details: 50 mM Tris-HCl pH 8.0, 1 mM EDTA, 50 mM NaCl, 1 mM ATP, 1 mM MgCl2, 1 uM biotin, 10% glycerol; 30 min room temperature; 5% PAGE in 0.5x TAE at 4 C
# [5] = system: 6xHis-BirA (Escherichia coli K-12); assay: EMSA; details: 50 mM Tris-HCl pH 8.0, 1 mM EDTA, 50 mM NaCl, 1 mM ATP, 1 mM MgCl2, 1 uM biotin, 10% glycerol; 30 min room temperature; 5% PAGE in 0.5x TAE at 4 C
substance,measurement,setting,value
GCCATGGGGCTTCTCCAAAACGTGTTTTTTGTTGTTAATTCGGTGTAGGCTTGTAAACCTAAATCTTTTCAATTTGGTTTACAAGTCGATTATGACAACGGACGATCTTGCC (double strand) [biotin operator probe (112 bp)],binding signal (% probe shifted at 50 nM protein),[1],41
same,binding signal (% probe shifted at 50 nM protein),[2],93
6×His-TurboID (from UniProt P06709 1-321) (enzyme),"midpoint (t^50) of the in vitro biotinylation of MBP-BccP; 20 nM biotin ligase, 2 µM BccP, 37°C, streptavidin-HRP blot",MBP-BccP (S. flexneri),14.6 min
6×His-BioID (from UniProt P06709 1-321) (enzyme),"midpoint (t^50) of the in vitro biotinylation of MBP-BccP; 20 nM biotin ligase, 2 µM BccP, 37°C, streptavidin-HRP blot",MBP-BccP (S. flexneri),3.4 min
biotin operator probe (112 bp),binding signal (% probe shifted at 50 nM protein),[3],0.8
same,binding signal (% probe shifted at 50 nM protein),[4],41
same,binding signal (% probe shifted at 50 nM protein),[5],93

# From paper PMC11580435
